For 2 sequences, binding signal (fold weaker than round 12 pool) and Kd results are on record in patent publication US5723594.

For this data set, the target named is PDGF-AB (Homo sapiens) (UniProt P04085+P01127). Description: filter.
PDGF-AB (Homo sapiens), sequence (P01127 82-190, chain 2 of 2, other chains not shown): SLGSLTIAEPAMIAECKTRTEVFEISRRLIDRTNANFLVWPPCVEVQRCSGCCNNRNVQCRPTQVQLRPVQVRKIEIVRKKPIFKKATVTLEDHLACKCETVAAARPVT

For the sequence “ATCCGCCTGATTAGCGATACTNNNNNNNNNNNNNNNNNNNNNNNNNNNNNNNNNNNNNNNNACTTGAGCAAAATCACCTGCAGGGG [random ssDNA library]”, the binding signal (fold weaker than round 12 pool) (initial random library) amounted to 700.
As to “ATCCGCCTGATTAGCGATACTNNNNNNNNNNNNNNNNNNNNNNNNNNNNNNNNNNNNNNNNACTTGAGCAAAATCACCTGCAGGGG [ssDNA SELEX round 12 pool]”, the Kd (usually a measure of binding affinity in units of concentration) (round 12 enriched pool, data not shown) stood at 0.05 nM.
